Experimental data: US20100150834A1 (BURNHAM INSTITUTE, published 2010)

T1: EphB4 (receptor of Table 1) (Mus musculus (Mouse), UniProt P54761 16-539)
T1 sequence: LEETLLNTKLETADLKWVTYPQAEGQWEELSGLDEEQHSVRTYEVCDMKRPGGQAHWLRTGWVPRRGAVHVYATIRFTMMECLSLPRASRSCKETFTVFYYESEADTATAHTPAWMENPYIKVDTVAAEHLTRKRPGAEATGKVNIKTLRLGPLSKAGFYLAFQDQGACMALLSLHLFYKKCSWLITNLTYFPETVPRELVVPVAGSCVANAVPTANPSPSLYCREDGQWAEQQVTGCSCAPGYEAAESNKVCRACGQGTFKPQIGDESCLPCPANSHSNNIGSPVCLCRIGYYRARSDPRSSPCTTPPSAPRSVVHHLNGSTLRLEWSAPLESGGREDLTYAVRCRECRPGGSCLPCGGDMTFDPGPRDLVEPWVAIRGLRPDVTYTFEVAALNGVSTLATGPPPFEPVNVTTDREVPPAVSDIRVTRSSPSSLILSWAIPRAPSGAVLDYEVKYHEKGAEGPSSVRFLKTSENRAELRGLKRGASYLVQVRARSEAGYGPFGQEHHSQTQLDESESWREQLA

T2: murine EphB4 ectodomain (murine, UniProt P54761 16-539)
T2 construct: extracellular domain; Coated on wells; also called immobilized EphB4 receptor ectodomain
T2 sequence (looked up): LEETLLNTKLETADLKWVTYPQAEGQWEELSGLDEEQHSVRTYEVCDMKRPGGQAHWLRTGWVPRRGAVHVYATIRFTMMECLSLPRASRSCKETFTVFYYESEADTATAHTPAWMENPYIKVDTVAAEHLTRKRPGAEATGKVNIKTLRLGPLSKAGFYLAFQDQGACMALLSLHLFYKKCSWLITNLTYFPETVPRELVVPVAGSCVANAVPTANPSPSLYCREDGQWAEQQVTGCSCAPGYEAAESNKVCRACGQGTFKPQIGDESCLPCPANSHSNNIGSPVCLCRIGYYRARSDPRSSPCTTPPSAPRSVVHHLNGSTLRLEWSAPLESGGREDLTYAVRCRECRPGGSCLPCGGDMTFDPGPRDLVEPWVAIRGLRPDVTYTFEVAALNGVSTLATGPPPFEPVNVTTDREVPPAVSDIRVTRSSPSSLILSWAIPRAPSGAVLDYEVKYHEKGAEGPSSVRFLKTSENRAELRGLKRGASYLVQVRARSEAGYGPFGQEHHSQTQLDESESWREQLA

T3: murine EphB4-Alkaline Phosphatase (murine, UniProt P54761 16-539)
T3 construct: also called EphB4-AP; EphB4 AP; not shown: alkaline phosphatase
T3 sequence (looked up): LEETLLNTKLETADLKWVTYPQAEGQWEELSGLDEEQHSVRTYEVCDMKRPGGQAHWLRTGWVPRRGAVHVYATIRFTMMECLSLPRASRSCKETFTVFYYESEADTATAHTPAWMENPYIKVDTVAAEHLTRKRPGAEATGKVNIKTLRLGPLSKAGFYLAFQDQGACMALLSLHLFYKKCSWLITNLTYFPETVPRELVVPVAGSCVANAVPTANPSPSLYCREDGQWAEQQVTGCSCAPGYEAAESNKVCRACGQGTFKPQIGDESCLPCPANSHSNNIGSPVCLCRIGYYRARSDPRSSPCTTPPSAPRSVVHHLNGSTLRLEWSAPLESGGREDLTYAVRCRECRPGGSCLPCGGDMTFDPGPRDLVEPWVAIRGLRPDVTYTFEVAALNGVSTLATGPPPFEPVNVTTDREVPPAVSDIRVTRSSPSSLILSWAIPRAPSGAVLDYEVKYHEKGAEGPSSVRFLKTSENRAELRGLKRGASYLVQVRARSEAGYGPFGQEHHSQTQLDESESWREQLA


Experiments:
[1] = molecular target: EphB2 (receptor of Table 1); assay: EphB receptor specificity panel (% binding)
[2] = molecular target: EphB6 (receptor of Table 1); assay: EphB receptor specificity panel (% binding)
[3] = molecular target: EphB3 (receptor of Table 1); assay: EphB receptor specificity panel (% binding)
[4] = molecular target: T1, EphB4 (receptor of Table 1); assay: EphB receptor specificity panel (% binding)
[5] = molecular target: EphB1 (receptor of Table 1); assay: EphB receptor specificity panel (% binding)
[6] = molecular target: EphB2 (receptor of Table 1); assay: inhibition of ephrin-B2 AP binding to EphB2 (panning receptor)
[7] = molecular target: T1, EphB4 (receptor of Table 1); assay: inhibition of ephrin-B2 AP binding to EphB4 (panning receptor)
[8] = molecular target: T2, murine EphB4 ectodomain; assay: inhibition of murine ephrin-B2 AP binding to immobilised murine EphB4 ectodomain
[9] = molecular target: T3, murine EphB4-Alkaline Phosphatase; assay: ELISA binding curve: ephrin-B2 Fc immobilised, increasing volumes of murine EphB4 AP, OD405; one experiment

% Binding [1] | % Binding [2] | % Binding [3] | % Binding [4] | % Binding [5] | IC50 [6] | IC50 [7] | IC50 [8] | Kd [9] | Binder
97% | 1% | 1% | 0% | 100% | – | – | – | – | DHWRVSPYSLLY (Panned on EphB2) [DHWRVSPYSLLY peptide (SEQ ID NO:13)]
100% | 45% | 22% | 20% | 99% | > 100 µM | – | – | – | WHWTIEPFAITS (Panned on EphB2) [WHWTIEPFAITS peptide (SEQ ID NO:8)]
17% | 14% | 20% | 100% | 16% | – | – | – | – | WGIPRAAQVMWT (Panned on EphB4) [WGIPRAAQVMWT peptide (SEQ ID NO:33)]
100% | 10% | 9% | 6% | 98% | – | – | – | – | SHWPVLPFAHWQ (Panned on EphB2) [SHWPVLPFAHWQ peptide (SEQ ID NO:12)]
100% | 0% | 22% | 22% | 18% | – | – | – | – | NHWPTQPYAIPI (Panned on EphB2) [NHWPTQPYAIPI peptide (SEQ ID NO:15)]
0% | 16% | 10% | 100% | 0% | – | > 100 µM | – | – | DALNDWLLFRPW (Panned on EphB4) [DALNDWLLFRPW peptide (SEQ ID NO:20)]
100% | 0% | 7% | 0% | 4% | – | – | – | – | DHWPLLPYALAH (Panned on EphB2) [… peptide (SEQ ID NO:16)]
89% | 26% | 85% | 20% | 100% | – | – | – | – | THWCHLLNCAAL (Panned on EphB2) [THWCHLLNCAAL peptide (SEQ ID NO:6)]
15% | 4% | 2% | 100% | 2% | – | – | – | – | LPHGPVAAAWDA (Panned on EphB4) [LPHGPVAAAWDA peptide (SEQ ID NO:26)]
13% | 16% | 14% | 100% | 13% | – | – | – | – | GPVSKAWQETET (Panned on EphB4) [GPVSKAWQETET peptide (SEQ ID NO:31)]
100% | 0% | 0% | 0% | 0% | – | – | – | – | WPPHWPRSLDYA (Panned on EphB2) [WPPHWPRSLDYA peptide (SEQ ID NO:17)]
8% | 11% | 11% | 100% | 13% | – | > 600 µM | – | – | FSPQGPAARNFA (Panned on EphB4) [FSPQGPAARNFA peptide (SEQ ID NO:25)]
100% | 0% | 5% | 0% | 86% | – | – | – | – | THWKFQPWALVT (Panned on EphB1) [THWKFQPWALVT peptide (SEQ ID NO:5)]
– | – | – | – | – | – | – | > 10 µM | – | LFSPNGPIARAW [L-RAW peptide LFSPNGPIARAW (SEQ ID NO:42)]
81% | 2% | 5% | 5% | 100% | – | – | – | – | DHWYYTPWQPIE (Panned on EphB2) [DHWYYTPWQPIE peptide (SEQ ID NO:9)]
8% | 7% | 9% | 100% | 9% | – | ~200 µM | – | – | DHNHNLYNPWRL (Panned on EphB4) [DHNHNLYNPWRL peptide (SEQ ID NO:21)]
6% | 7% | 16% | 100% | 4% | – | – | – | – | GPVHRAWEPTSH (Panned on EphB4) [GPVHRAWEPTSH peptide (SEQ ID NO:29)]

% Binding [1] | % Binding [2] | % Binding [3] | % Binding [4] | % Binding [5] | IC50 [6] | IC50 [7] | IC50 [8] | Kd [9] | Binder
– | – | – | 100% | – | – | – | – | – | SGHQLLLNKMPN (Panned on EphB4) [SGHQLLLNKMPN peptide (SEQ ID NO:35)]
100% | 8% | 9% | 4% | 39% | > 100 µM | – | – | – | SHWPISPYSLLS (Panned on EphB2) [SHWPISPYSLLS peptide (SEQ ID NO:14)]
– | – | – | – | – | – | – | ~0.04 µM | – | NYLFSPNGPIARAW [NYL-RAW peptide NYLFSPNGPIARAW (SEQ ID NO:40)]
5% | 6% | 4% | 100% | 10% | – | – | – | – | GPVADAWLVYPR (Panned on EphB4) [GPVADAWLVYPR peptide (SEQ ID NO:32)]
23% | 30% | 23% | 100% | 22% | – | > 600 µM | – | – | EWYMKFPPEHYF (Panned on EphB4) [EWYMKFPPEHYF peptide (SEQ ID NO:19)]
2% | 3% | 1% | 100% | 1% | – | – | – | – | GPVERAWRPDLI (Panned on EphB4) [GPVERAWRPDLI peptide (SEQ ID NO:30)]
12% | 17% | 29% | 100% | 16% | – | – | – | – | EFFTWRPTYYGI (Panned on EphB4) [EFFTWRPTYYGI peptide (SEQ ID NO:23)]
– | – | – | – | – | – | – | – | 0.0006 µM | ephrin-B2 Fc (Example 7) (Fc fusion, not shown: a dimerising Fc or GST; small tags and cut ends, also called ephrin B2 Fc protein; ephrin B2 Fc fusion protein) RSIVLEPIYWNSSNSKFLPGQGLVLYPQIGDKLDIICPKVDSKTVGQYEYYKVYMVDKDQADRCTIKKENTPLLNCARPDQDVKFTIKFQEFSPNLWGLEFQKNKDYYIISTSNGSLEGLDNQEGGVCQTRAMKILMKVGQDASSAGSARNHGPTRRPELEAGTNGRSSTTSPFVKPNPGSSTDGNSAGHSGNNLLGSEVALFA
100% | 15% | 31% | 13% | 54% | – | – | – | – | WHRYPDPRMLPT (Panned on EphB2) [WHRYPDPRMLPT peptide (SEQ ID NO:7)]
100% | 7% | 4% | 4% | 97% | – | – | – | – | IHWPVAPYSYLD (Panned on EphB2) [IHWPVAPYSYLD peptide (SEQ ID NO:11)]
100% | 0% | 10% | 9% | 88% | – | – | – | – | SHKFPGPPSWMS (Panned on EphB1) [SHKFPGPPSWMS peptide (SEQ ID NO:4)]
6% | 6% | 2% | 100% | 22% | – | – | – | – | SHVGPIMRAWAP (Panned on EphB4) [SHVGPIMRAWAP peptide (SEQ ID NO:28)]
– | – | – | 100% | – | – | – | – | – | IPWTQHMAMSPM (Panned on EphB4) [… peptide (SEQ ID NO:34)]
– | – | – | – | – | – | – | ~0.04 µM | – | YLFSPNGPIARAW [YL-RAW peptide YLFSPNGPIARAW (SEQ ID NO:41)]
0% | 0% | 4% | 100% | 1% | – | > 500 µM | – | – | NPVIGPIQRAWT (Panned on EphB4) [NPVIGPIQRAWT peptide (SEQ ID NO:27)]
100% | 3% | 4% | 1% | 53% | > 100 µM | – | – | – | DHWRILPFSLSS (Panned on EphB2) [DHWRILPFSLSS peptide (SEQ ID NO:10)]
0% | 0% | 1% | 0% | 100% | – | – | – | – | TTLSQLPKSTWL (Panned on EphB1) [TTLSQLPKSTWL peptide (SEQ ID NO:2)]
